Consider 35 sequences from the supplement of paper PMC12764529.

Series [1] can be described thus: folding stability dG unfold from trypsin proteolysis; higher = more stable. An outline of the steps:
(§1)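 Sequencing followed digestion of designed mini-proteins with trypsin and chymotrypsin, each at 11 concentrations in threefold dilutions together with a no-protease condition. The mini-proteins were under 80 residues, had no cysteine, sat in a PA-tagged cDNA display construct, and were kept only if AlphaFold2 dimer inter-PAE was above 15. From the counts, Bayesian fitting gave K50, and unfolding free energy was derived against a sequence-predicted unfolded-state K50 and a shared folded-state K50, per protease or combined.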

Series [2] in a line: folding stability dG unfold from chymotrypsin proteolysis; higher = more stable. An outline of the steps:
as §1

Series [3] can be described thus: folding stability dG unfold (combined trypsin and chymotrypsin); higher = more stable. An outline of the steps:
as §1

± gives the half width of the 95% confidence interval.

Consider “SAGGSAGGSKLGVFEVGGKRYAVKVTDKNGKELTLAIPPELLKKLPKNLKVEVKEVKPGEPIPSAGGSAGGS [r12_419_TrMRF]”, for which the entries for the “folding stability dG unfold” value in series [1], in series [2] and in series [3] were 0.218 ± 0.16 kcal/mol, 0.738 ± 0.23 kcal/mol and 0.635 ± 0.15 kcal/mol, respectively.
On to “SAGGSAGGSKLKIPIIRKFKPDEPLPTAEDVKAILEELGLDIKEVKVTYFPEYGYAIAEVEVSSAGGSAGGS [r12_1052_TrMRF]”, for which the results for the “folding stability dG unfold” value in series [1], in series [2] and in series [3] were 1.57 ± 0.033 kcal/mol, 1.24 ± 0.039 kcal/mol and 1.41 ± 0.067 kcal/mol, respectively.
For “SAGGSAGGSKMLLVKVYVPEFDTVVVFEAPRDITIEEIEERLREAGFSVARIEVVEFDLPEGGSAGGSAGGS [r12_955_TrMRF]”, in that order: 3.02 ± 0.049 kcal/mol, 3.766 ± 0.022 kcal/mol and 3.55 ± 0.071 kcal/mol.
In the same order, the values of “SAGGSAGGSKMRERTITFPNAKITIWYHPDGNVRMEVMNPGNGKPKREIWMKPGDIEEILKKFSAGGSAGGS [r20_129_TrROS]” are 1.62 ± 0.043 kcal/mol, 2.58 ± 0.038 kcal/mol and 2.32 ± 0.049 kcal/mol.
In the same order, the values of “SAGGSAGGSKNGEPPPVPTITMRFKDPDKIRKLNKKAGLPIEHDPGNGYITFPYRQIDKILKASAGGSAGGS [r12_325_TrROS]” are 3.98 ± 0.8 kcal/mol, 5.86 ± 0.32 kcal/mol and over 6 kcal/mol.
Consider “SAGGSAGGSKNMVMVEIPFEHKVKQPDPPDGKWRQHEHKPTIPYMIPPEDAEELLNSPALKKISAGGSAGGS [r12_1015_TrROS]”, for which the results for the “folding stability dG unfold” value in series [1], in series [2] and in series [3] were 0.138 ± 0.2 kcal/mol, 0.0107 ± 0.21 kcal/mol and 0.043 ± 0.19 kcal/mol, respectively.
In the same order, the values of “SAGGSAGGSKPDEVEVIEIKVPPGARVRLPDGSVVEIKPGDPNTTYRIVVDKKNKKITIEPLDSAGGSAGGS [r12_338_TrROS_Hall]” are 1.38 ± 0.12 kcal/mol, 1.43 ± 0.12 kcal/mol and 1.46 ± 0.27 kcal/mol.
In the same order, the values of “SAGGSAGGSKPGKPREIMIPFPDNWFMSIRVWPGRIEIENPDNGKEFEIPIGAPIEIELFPLDSAGGSAGGS [r12_227_TrROS]” are 1.98 ± 0.035 kcal/mol, 1.81 ± 0.095 kcal/mol and 1.89 ± 0.17 kcal/mol.
For “SAGGSAGGSKPIKTKATIPLPNGKTITADVEIVVLPDGNILLRVPSGKVILVPPNYPVTFEDASAGGSAGGS [r20_227_TrMRF]”, the “folding stability dG unfold” value in series [1] amounted to 1.71 ± 0.025 kcal/mol; in series [2], 1.62 ± 0.021 kcal/mol; in series [3] it was 1.67 ± 0.036 kcal/mol.
In the same order, the values of “SAGGSAGGSKPRPIDIMFPNPENGRPVMIRIEYTKDKIKAEWYFGNKPQEKKIDDPEDLLEFISAGGSAGGS [r12_299_TrROS]” are 0.0886 ± 0.055 kcal/mol, 1.08 ± 0.1 kcal/mol and 0.754 ± 0.096 kcal/mol.
For “SAGGSAGGSKPVLKITVTNEKGEKQTISLDELQAETGLSAEEIAARLAALLPPGAKITIEPVPSAGGSAGGS [r12_399_TrROS_Hall]”, in that order: 1.81 ± 0.024 kcal/mol, 2.11 ± 0.023 kcal/mol and 1.98 ± 0.048 kcal/mol.
For “SAGGSAGGSKRKIKVDDVEPPPNGFMRVTLEVDDGKPLVPINIPPGQTPSEVKDQVKDLVEELSAGGSAGGS [r12_798_TrROS]”, in that order: 3.86 ± 0.31 kcal/mol, 3.74 ± 0.41 kcal/mol and 3.85 ± 0.49 kcal/mol.
On to “SAGGSAGGSKTIEIVVPPNTTPEEIAKKLKELFPDAKITSVEVYVDKKTKKIVYVKVKIEVKPSAGGSAGGS [r12_822_TrROS_Hall]”, for which the “folding stability dG unfold” value in series [1] was 2.68 ± 0.1 kcal/mol; in series [2] it was 3.82 ± 0.057 kcal/mol; in series [3] it was 3.46 ± 0.087 kcal/mol.
In the same order, the values of “SAGGSAGGSKTIKIEIEKMSEEELKNLTAEEIAKLLGVKEVKVTKEKIEITLTEEELKKLEKKSAGGSAGGS [r12_178_TrROS_Hall]” are 0.257 ± 0.099 kcal/mol, 1.24 ± 0.022 kcal/mol and 0.856 ± 0.14 kcal/mol.
As to “SAGGSAGGSKTILIVLPPGEELTPEQLKALAAALPPDATLTILVYDPETKELHVFTFKLPEGLSAGGSAGGS [r12_913_TrROS_Hall]”, the “folding stability dG unfold” value in series [1] was determined as 2.99 ± 0.069 kcal/mol; in series [2] it was 4.14 ± 0.054 kcal/mol; in series [3], 3.87 ± 0.081 kcal/mol.
For “SAGGSAGGSKTLIIKIKVEGLSEEEIAEELAKKLQEETGLKIKSVKIEKKDGYLYIEVEVEEPSAGGSAGGS [r12_781_TrROS_Hall]”, in that order: 3.86 ± 0.4 kcal/mol, 3.96 ± 0.17 kcal/mol and 4.15 ± 0.21 kcal/mol.
In the same order, the values of “SAGGSAGGSKTVYRITIYNEKTGKKLVIEIEESMSEEEKEQKIKDLLKKLLPPGAKIKIEKVPSAGGSAGGS [r20_213_TrROS_Hall]” are 3.34 ± 0.44 kcal/mol, 4.44 ± 0.2 kcal/mol and 4.08 ± 0.25 kcal/mol.
For “SAGGSAGGSKTYKIKVEKLEDGTYKLKIIDKKTKKEYEITISKKNLPKIKEIKITKNGKIEIKSAGGSAGGS [r20_11_TrROS_Hall]”, in that order: 1.73 ± 0.026 kcal/mol, 3.08 ± 0.071 kcal/mol and 2.75 ± 0.12 kcal/mol.
Turning to “SAGGSAGGSKVKIETVENEDGVKFERVVDEETGKTVFLAKNKKTGKLYLFVITPDGEIKVFELSAGGSAGGS [r12_474_TrROS_Hall]”, the “folding stability dG unfold” value in series [1] came out at 1.42 ± 0.033 kcal/mol; in series [2], 2.6 ± 0.049 kcal/mol; in series [3], 2.27 ± 0.089 kcal/mol.
For “SAGGSAGGSKYYRVRFKEEIEITLENGEKLKIKKGDVIVVPSKEDLDRLKALFPNLEVEVEPVSAGGSAGGS [r12_987_TrROS_Hall]”, in that order: 3.16 ± 0.1 kcal/mol, 3.91 ± 0.043 kcal/mol and 3.7 ± 0.099 kcal/mol.
For “SAGGSAGGSLKPGQPYIMIRIKIQHPNGNTRTFNIMVPWNDIPQILDFLESHGFKIKDIEIFPSAGGSAGGS [r12_986_TrROS]”, in that order: 3.94 ± 0.21 kcal/mol, 5.42 ± 0.17 kcal/mol and 5.09 ± 0.2 kcal/mol.
For “SAGGSAGGSLLEDIKKALEIIKPPPIPVKVKVKIEYDPEKGELKVEVEFFGIKLKVEGEFKIESAGGSAGGS [r20_230_TrMRF]”, in that order: 2.07 ± 0.22 kcal/mol, 3.4 ± 0.16 kcal/mol and 3.04 ± 0.26 kcal/mol.
Take “SAGGSAGGSLRLRVTFTVTVTFLDGNRLRPAKVEITVEIELEPIPPELLRPRPLPGDKLEYDLSAGGSAGGS [r12_1031_TrMRF]”: the “folding stability dG unfold” value in series [1] stood at 2.72 ± 0.17 kcal/mol; in series [2], 3.29 ± 0.045 kcal/mol; in series [3], 3.16 ± 0.25 kcal/mol.
As to “SAGGSAGGSMEVDIEVETLETEVSFLPGDLIKVKKLVKITLPNGEVLEEETEEIIPKSEIGKLSAGGSAGGS [r12_1028_JUSTAS]”, the “folding stability dG unfold” value in series [1] was 0.808 ± 0.078 kcal/mol; in series [2] it was -0.00695 ± 0.12 kcal/mol; in series [3] it was 0.419 ± 0.24 kcal/mol.
With “SAGGSAGGSMEVNLKVTVTYPDGTVVELEIPKVSTEDGKSVEDVAKEIEALPDVKEVEVEIVESAGGSAGGS [r12_199_JUSTAS]”, the “folding stability dG unfold” value came out at 0.847 ± 0.13 kcal/mol in series [1], 2.03 ± 0.1 kcal/mol in series [2] and 1.55 ± 0.27 kcal/mol in series [3].
For “SAGGSAGGSMEVTYDEETGELTVRIEVDGKTLTLKFKSIEDLKAALEKLGIDVDDVKIVEIEPSAGGSAGGS [r12_834_TrROS_Hall]”, in that order: 4.18 ± 0.3 kcal/mol, 4.75 ± 0.089 kcal/mol and 4.67 ± 0.14 kcal/mol.
For “SAGGSAGGSMIDDIVEKLKIPPGTRIVFNDGEVKYFDNREDIKEWAKNGYPAEKLKNIVAFPESAGGSAGGS [r12_430_TrMRF]”, in that order: -0.276 ± 0.15 kcal/mol, 0.491 ± 0.1 kcal/mol and 0.251 ± 0.12 kcal/mol.
For “SAGGSAGGSMIEVVKFPNGITLEYFPETNTYRAFNPSTNTTTTFPPGVSFEEAVEAVKKGNLVSAGGSAGGS [r12_832_JUSTAS]”, in that order: 4.1 ± 0.091 kcal/mol, 3.82 ± 0.017 kcal/mol and 3.88 ± 0.041 kcal/mol.
For “SAGGSAGGSMITLTLPDEEALRAYVEQLVADAGTEITEVTVTPLAPDTVEAEVSIDPTDPVGLSAGGSAGGS [r12_647_JUSTAS]”, the “folding stability dG unfold” value turned out to be 1.09 ± 0.022 kcal/mol in series [1], 0.426 ± 0.065 kcal/mol in series [2] and 0.858 ± 0.098 kcal/mol in series [3].
In the same order, the values of “SAGGSAGGSMKITINKWDPDNGNIMVTIQMPGQPVEIMIPWNNVDKLLEKLPFPGMKIDEIYPSAGGSAGGS [r12_23_TrROS]” are 1.11 ± 0.1 kcal/mol, 0.718 ± 0.23 kcal/mol and 1.14 ± 0.23 kcal/mol.
For “SAGGSAGGSMKITVEKDENGNYRVTVTLTVNGKEIKLTVTVPKNTTPEEVKKKAEELAKELLKSAGGSAGGS [r12_69_TrROS_Hall]”, in that order: 4.39 ± 0.55 kcal/mol, 5.13 ± 0.44 kcal/mol and over 6 kcal/mol.
In the case of “SAGGSAGGSMKKIKIEVYNKDGSKTELPLSEILKLYDFDAEEIKKFLEKLFPKDVKFKIEIEGSAGGSAGGS [r12_399_TrMRF]”, the “folding stability dG unfold” value worked out at 1.33 ± 0.061 kcal/mol in series [1], 2.53 ± 0.05 kcal/mol in series [2] and 2.31 ± 0.17 kcal/mol in series [3].
In the same order, the values of “SAGGSAGGSMKLPPELKGKKIRIRVRNKNGETVEAEATVLEDGTIEIKIEGLSEEEITEIEIESAGGSAGGS [r12_477_TrROS_Hall]” are 2.36 ± 0.038 kcal/mol, 2.21 ± 0.035 kcal/mol and 2.3 ± 0.076 kcal/mol.
For “SAGGSAGGSMKLVTVKMKRPNGPVELTPVLPVDPSETLEEVKERVLELYPGAEITEITVTPDESAGGSAGGS [r12_738_JUSTAS]”, in that order: -0.358 ± 0.11 kcal/mol, 0.708 ± 0.15 kcal/mol and 0.457 ± 0.15 kcal/mol.
With “SAGGSAGGSMKTITVPPEVLAALPLEEIVERNTSPDEEVEVEFVEEPGPVTVIIDTKKKPEHHSAGGSAGGS [r12_716_JUSTAS]”, the “folding stability dG unfold” value is -0.95 ± 0.26 kcal/mol in series [1], 0.551 ± 0.015 kcal/mol in series [2] and 0.252 ± 0.092 kcal/mol in series [3].
